These results are taken from patent publication US12655441B2, “PPO polypeptides tolerant to PPO-inhibiting herbicides and use thereof” (QINGDAO KINGAGROOT CHEMICAL COMPOUND CO., LTD., priority 2021, dated 2026).

In data set [1] the test system is PPO-deficient Escherichia coli (ΔhemG). Kind of data set: PPO-deficient E. coli (ΔhemG) transformed by rice OsPPO1 mutant genes, growth on LB medium containing herbicide. As to conditions: 500 nM compound A.
The subject of another data set is OsPPO1. The data set is described as follows: In vitro enzyme activity test of OsPPO1 proteins (fluorescence, substrate protoporphyrinogen). It counts as biochemical, rice. The note with it: enzyme 500 nM, protoporphyrinogen 0.125-16 μM, excitation 410 nm, detection 630 nm. Here is the method:
Protoporphyrinogen, a substrate catalyzed by PPO, was prepared by reducing protoporphyrin with sodium amalgam. 10 mg of protoporphyrin was dissolved in 10 mL solvent, added with 20% sodium amalgam at the rate of 0.2 g/mL, reacted for 2 hours, then filtered under the protection of nitrogen in dark place. After the reaction was completed, the reaction solution should become achromatic or light brown. The reaction solution was diluted by adding with reaction buffer (100 mM Tris-HCl, 1 mM EDTA, 5 mM DTT, 0.1% Tween 20/80), and 10% hydrochloric acid was used to adjust pH to about 8.0. […]
3) The constructed fusion expression vector pET28a-MBP-OsPPO1 was transferred into E. coli BL21 (DE3), subjected to induced-expression with 0.5 mM IPTG, then purified with the Ni-NTA column, afterwards subjected to thrombin digestion, dialysed, and purified secondly by dextrin-column and Ni-column. […] The collected strains were re-suspended with the Ni-buffer A (50 mM Tris pH 8.0, 500 mM NaCl, 50 mM imidazole), homogenized by high pressure cell homogenizer, and centrifuged at 4000×g at 4° C. for 30 minutes; the supernatant was purified with the Ni column, then the purity thereof was detected by SDS-PAGE. The thrombin enzyme was added according to the quantity of proteins, dialyzed with 50 mM Tris pH 8.0, 500 mM NaCl, 1 mM DTT buffer. […]

B1: Y425I: Amino-acid sequence of PPO1 from rice mutant (protein)
chain: MAAAAAAMATATSATAAPPLRIRDAARRTRRRGHVRCAVASGAAEAPAAPGARVSADCVVVGGGISGLCTAQALATKHGVGDVLVTEARARPGGNITTAERAGEGYLWEEGPNSFQPSDPVLTMAVDSGLKDDLVFGDPNAPRFVLWEGKLRPVPSKPGDLPFFDLMSIPGKLRAGLGALGVRAPPPGREESVEDFVRRNLGAEVFERLIEPFCSGVYAGDPSKLSMKAAFGKVWRLEDTGGSIIGGTIKTIQERGKNPKPPRDPRLPTPKGQTVASFRKGLTMLPDAITSRLGSKVKLSWKLTSITKSDNKGYALVYETPEGVVSVQAKTVVMTIPSYVASDILRPLSSDAADALSIFYYPPVAAVTVSYPKEAIRKECLIDGELQGFGQLHPRSQGVETLGTIYSSSLFPNRAPAGRVLLLNIIGGSTNTGIVSKTESELVEAVDRDLRKMLINPKAVDPLVLGVRVWPQAIPQFLIGHLDHLEAAKSALGKGGYDGLFLGGNYVAGVALGRCVEGAYESASQISDYLTKYAYK
modifications: Amino-acid sequence of PPO1 from rice mutant (OsPPO1 Y425I)
In the case of B1, the “growth of ΔhemG transformant on LB medium containing compound A, compared with the wild type” value in data set [1] was “grew normally”. For the same molecule, the “enzyme activity relative to WT” value with OsPPO1 was “lower than WT”.
